# Results taken from US20140274782A1, “AFFINITY REAGENTS AND METHODS FOR DETECTION, PURIFICATION, AND PROTEOMIC ANALYSIS OF METHYLATED PROTEINS” (The Board of Trustees of the Leland Stanford Junior …, priority 2013, published 2014).
# T1: G9a and GLP (Homo sapiens, UniProt Q96KQ7+Q9H9B1)
# T1 sequence (Q96KQ7 2-1210 limits assumed): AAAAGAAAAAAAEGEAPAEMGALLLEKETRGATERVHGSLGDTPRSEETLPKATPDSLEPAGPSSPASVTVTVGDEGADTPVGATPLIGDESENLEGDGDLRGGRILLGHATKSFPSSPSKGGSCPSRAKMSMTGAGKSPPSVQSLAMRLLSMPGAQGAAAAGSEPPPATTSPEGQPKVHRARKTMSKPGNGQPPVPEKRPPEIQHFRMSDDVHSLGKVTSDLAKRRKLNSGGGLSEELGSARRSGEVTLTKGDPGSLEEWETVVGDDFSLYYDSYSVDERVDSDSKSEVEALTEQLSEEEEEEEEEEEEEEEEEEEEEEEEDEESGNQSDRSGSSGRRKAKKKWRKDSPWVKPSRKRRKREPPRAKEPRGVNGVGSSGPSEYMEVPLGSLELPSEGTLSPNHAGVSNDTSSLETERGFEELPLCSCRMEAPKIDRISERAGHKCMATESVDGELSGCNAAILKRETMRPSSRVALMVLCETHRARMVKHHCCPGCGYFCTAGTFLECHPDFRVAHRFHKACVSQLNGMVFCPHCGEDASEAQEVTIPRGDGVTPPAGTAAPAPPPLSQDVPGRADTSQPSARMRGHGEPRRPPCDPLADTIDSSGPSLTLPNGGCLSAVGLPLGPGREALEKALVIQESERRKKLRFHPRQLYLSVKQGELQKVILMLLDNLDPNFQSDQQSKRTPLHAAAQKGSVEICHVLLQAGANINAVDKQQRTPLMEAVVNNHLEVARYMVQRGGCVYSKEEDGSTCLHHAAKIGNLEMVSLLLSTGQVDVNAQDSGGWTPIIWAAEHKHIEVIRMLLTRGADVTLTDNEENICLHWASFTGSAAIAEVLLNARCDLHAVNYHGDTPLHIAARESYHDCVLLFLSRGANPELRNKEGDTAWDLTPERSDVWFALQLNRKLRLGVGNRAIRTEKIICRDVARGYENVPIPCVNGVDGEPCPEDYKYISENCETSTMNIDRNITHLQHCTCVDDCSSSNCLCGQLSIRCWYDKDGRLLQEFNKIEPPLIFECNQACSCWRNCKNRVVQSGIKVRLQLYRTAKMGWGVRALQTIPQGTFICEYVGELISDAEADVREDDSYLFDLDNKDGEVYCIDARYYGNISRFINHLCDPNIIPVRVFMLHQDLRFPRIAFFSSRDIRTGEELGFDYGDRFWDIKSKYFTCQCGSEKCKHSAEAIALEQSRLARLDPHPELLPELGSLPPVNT
# T1 sequence (Q9H9B1 2-1298 limits assumed): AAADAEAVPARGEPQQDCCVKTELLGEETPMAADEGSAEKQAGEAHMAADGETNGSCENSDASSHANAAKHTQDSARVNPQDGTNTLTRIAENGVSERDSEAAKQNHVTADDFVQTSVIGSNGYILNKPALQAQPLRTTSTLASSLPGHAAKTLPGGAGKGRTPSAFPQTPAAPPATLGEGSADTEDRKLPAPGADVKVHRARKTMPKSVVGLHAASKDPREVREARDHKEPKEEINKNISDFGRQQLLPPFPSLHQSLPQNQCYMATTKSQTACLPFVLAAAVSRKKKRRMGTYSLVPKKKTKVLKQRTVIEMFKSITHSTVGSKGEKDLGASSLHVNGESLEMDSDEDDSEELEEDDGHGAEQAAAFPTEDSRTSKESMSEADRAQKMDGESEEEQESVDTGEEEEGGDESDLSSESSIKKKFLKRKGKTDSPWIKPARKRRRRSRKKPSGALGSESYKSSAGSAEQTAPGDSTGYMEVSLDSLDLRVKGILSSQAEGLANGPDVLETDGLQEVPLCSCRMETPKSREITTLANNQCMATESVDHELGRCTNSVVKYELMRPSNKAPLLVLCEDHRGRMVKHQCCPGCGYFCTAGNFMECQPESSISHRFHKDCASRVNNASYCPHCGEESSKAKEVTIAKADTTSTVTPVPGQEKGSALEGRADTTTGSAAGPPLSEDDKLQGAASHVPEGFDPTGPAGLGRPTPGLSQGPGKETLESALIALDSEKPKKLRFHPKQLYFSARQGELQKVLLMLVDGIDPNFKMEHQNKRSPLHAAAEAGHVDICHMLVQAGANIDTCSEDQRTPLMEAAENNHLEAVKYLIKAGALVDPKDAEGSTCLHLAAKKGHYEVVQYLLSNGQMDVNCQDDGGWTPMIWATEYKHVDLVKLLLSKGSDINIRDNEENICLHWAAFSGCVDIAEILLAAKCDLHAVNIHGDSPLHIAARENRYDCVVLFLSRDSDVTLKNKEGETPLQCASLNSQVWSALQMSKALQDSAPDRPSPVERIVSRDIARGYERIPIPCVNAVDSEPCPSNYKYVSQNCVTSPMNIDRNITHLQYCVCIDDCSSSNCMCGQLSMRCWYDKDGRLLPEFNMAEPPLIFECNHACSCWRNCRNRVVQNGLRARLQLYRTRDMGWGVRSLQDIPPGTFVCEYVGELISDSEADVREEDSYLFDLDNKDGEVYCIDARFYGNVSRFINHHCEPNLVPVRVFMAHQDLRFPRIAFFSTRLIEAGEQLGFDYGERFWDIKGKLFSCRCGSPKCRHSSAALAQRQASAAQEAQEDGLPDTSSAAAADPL
# B1: CPSF6 (protein, UniProt Q16630 1-551, looked up)
# Cleavage and polyadenylation …: MADGVDHIDIYADVGEEFNQEAEYGGHDQIDLYDDVISPSANNGDAPEDRDYMDTLPPTVGDDVGKGAAPNVVYTYTGKRIALYIGNLTWWTTDEDLTEAVHSLGVNDILEIKFFENRANGQSKGFALVGVGSEASSKKLMDLLPKRELHGQNPVVTPCNKQFLSQFEMQSRKTTQSGQMSGEGKAGPPGGSSRAAFPQGGRGRGRFPGAVPGGDRFPGPAGPGGPPPPFPAGQTPPRPPLGPPGPPGPPGPPPPGQVLPPPLAGPPNRGDRPPPPVLFPGQPFGQPPLGPLPPGPPPPVPGYGPPPGPPPPQQGPPPPPGPFPPRPPGPLGPPLTLAPPPHLPGPPPGAPPPAPHVNPAFFPPPTNSGMPTSDSRGPPPTDPYGRPPPYDRGDYGPPGREMDTARTPLSEAEFEEIMNRNRAISSSAISRAVSDASAGDYGSAIETLVTAISLIKQSKVSADDRCKVLISSLQDCLHGIESKSYGSGSRRERSRERDHSRSREKSRRHKSRSRDRHDDYYRERSRERERHRDRDRDRDRERDREREYRHR
# B2: ORC3 (protein, UniProt Q9UBD5 1-711, looked up)
# Origin recognition complex …: MATSSMSKGCFVFKPNSKKRKISLPIEDYFNKGKNEPEDSKLRFETYQLIWQQMKSENERLQEELNKNLFDNLIEFLQKSHSGFQKNSRDLGGQIKLREIPTAALVLGVNVTDHDLTFGSLTEALQNNVTPYVVSLQAKDCPDMKHFLQKLISQLMDCCVDIKSKEEESVHVTQRKTHYSMDSLSSWYMTVTQKTDPKMLSKKRTTSSQWQSPPVVVILKDMESFATKVLQDFIIISSQHLHEFPLILIFGIATSPIIIHRLLPHAVSSLLCIELFQSLSCKEHLTTVLDKLLLTTQFPFKINEKVLQVLTNIFLYHDFSVQNFIKGLQLSLLEHFYSQPLSVLCCNLPEAKRRINFLSNNQCENIRRLPSFRRYVEKQASEKQVALLTNERYLKEETQLLLENLHVYHMNYFLVLRCLHKFTSSLPKYPLGRQIRELYCTCLEKNIWDSEEYASVLQLLRMLAKDELMTILEKCFKVFKSYCENHLGSTAKRIEEFLAQFQSLDETKEEEDASGSQPKGLQKTDLYHLQKSLLEMKELRRSKKQTKFEVLRENVVNFIDCLVREYLLPPETQPLHEVVYFSAAHALREHLNAAPRIALHTALNNPYYYLKNEALKSEEGCIPNIAPDICIAYKLHLECSRLINLVDWSEAFATVVTAAEKMDANSATSEEMNEIIHARFIRAVSELELLGFIKPTKQKTDHVARLTWGGC
# B3: GIGYF2 (protein, UniProt Q6Y7W6 2-1299, looked up)
# GRB10-interacting GYF protein …: AAETQTLNFGPEWLRALSSGGSITSPPLSPALPKYKLADYRYGREEMLALFLKDNKIPSDLLDKEFLPILQEEPLPPLALVPFTEEEQRNFSMSVNSAAVLRLTGRGGGGTVVGAPRGRSSSRGRGRGRGECGFYQRSFDEVEGVFGRGGGREMHRSQSWEERGDRRFEKPGRKDVGRPNFEEGGPTSVGRKHEFIRSESENWRIFREEQNGEDEDGGWRLAGSRRDGERWRPHSPDGPRSAGWREHMERRRRFEFDFRDRDDERGYRRVRSGSGSIDDDRDSLPEWCLEDAEEEMGTFDSSGAFLSLKKVQKEPIPEEQEMDFRPVDEGEECSDSEGSHNEEAKEPDKTNKKEGEKTDRVGVEASEETPQTSSSSARPGTPSDHQSQEASQFERKDEPKTEQTEKAEEETRMENSLPAKVPSRGDEMVADVQQPLSQIPSDTASPLLILPPPVPNPSPTLRPVETPVVGAPGMGSVSTEPDDEEGLKHLEQQAEKMVAYLQDSALDDERLASKLQEHRAKGVSIPLMHEAMQKWYYKDPQGEIQGPFNNQEMAEWFQAGYFTMSLLVKRACDESFQPLGDIMKMWGRVPFSPGPAPPPHMGELDQERLTRQQELTALYQMQHLQYQQFLIQQQYAQVLAQQQKAALSSQQQQQLALLLQQFQTLKMRISDQNIIPSVTRSVSVPDTGSIWELQPTASQPTVWEGGSVWDLPLDTTTPGPALEQLQQLEKAKAAKLEQERREAEMRAKREEEERKRQEELRRQQEEILRRQQEEERKRREEEELARRKQEEALRRQREQEIALRRQREEEERQQQEEALRRLEERRREEEERRKQEELLRKQEEEAAKWAREEEEAQRRLEENRLRMEEEAARLRHEEEERKRKELEVQRQKELMRQRQQQQEALRRLQQQQQQQQLAQMKLPSSSTWGQQSNTTACQSQATLSLAEIQKLEEERERQLREEQRRQQRELMKALQQQQQQQQQKLSGWGNVSKPSGTTKSLLEIQQEEARQMQKQQQQQQQHQQPNRARNNTHSNLHTSIGNSVWGSINTGPPNQWASDLVSSIWSNADTKNSNMGFWDDAVKEVGPRNSTNKNKNNASLSKSVGVSNRQNKKVEEEEKLLKLFQGVNKAQDGFTQWCEQMLHALNTANNLDVPTFVSFLKEVESPYEVHDYIRAYLGDTSEAKEFAKQFLERRAKQKANQQRQQQQLPQQQQQQPPQQPPQQPQQQDSVWGMNHSTLHSVFQTNQSNNQQSNFEAVQSGKKKKKQKMVRADPSLLGFSVNASSERLNMGEIETLDDY
# System: 3×MBT domain of L3MBTL1
# Assay: Triple SILAC pull-down, 3xMBT/3xMBTD355N ratio (cytoplasmic, nuclear and chromatin fractions of 293T cells);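 further: proteins quantified with MaxQuant, requiring at least two unique peptides and quantification in both label directions, normalized to the mean of proteins from a digested loading control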
# Format: binding, human
# Conditions: SILAC ratio, pull-down 3xMBT vs 3xMBTD355N; experiment with UNC0638 in heavy SILAC media
row,Molecule,3xMBT/D355N UNC Heavy
1,B1,1.89 log base 2
2,B2,1.54 log base 2
3,B3,2.62 log base 2

# Same assay, conditions: SILAC ratio, pull-down 3xMBT vs 3xMBTD355N; experiment with UNC0638 in light SILAC media
row,Molecule,3xMBT/D355N UNC Light
1,B1,3.10 log base 2
2,B2,2.54 log base 2
3,B3,3.04 log base 2

# Target: T1, G9a and GLP
# Assay: Triple SILAC pull-down after UNC0638 treatment of 293T cells, DMSO/UNC0638 ratio of protein captured by 3×MBT;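 further: mass spectrometry (Q-Exactive) SILAC quantitation, DMSO/UNC0638 ratio computed after subtracting 3×MBTD355N mutant pull-down background, only proteins with at least twofold 3×MBT over mutant signal considered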
# Format: cell-based
# Design: endogenous in cells; host or cells: HEK 293T
# Conditions: SILAC ratio DMSO/UNC0638 of protein pulled down with 3xMBT; UNC0638 in heavy SILAC media
row,Relative to UNC0638 UNC Heavy,Molecule
1,0.30 log base 2,B1
2,0.25 log base 2,B2
3,0.34 log base 2,B3

# Same assay, conditions: SILAC ratio DMSO/UNC0638 of protein pulled down with 3xMBT; UNC0638 in light SILAC media
row,Relative to UNC0638 UNC Light,Molecule
1,0.09 log base 2,B1
2,0.17 log base 2,B2
3,0.05 log base 2,B3

# Same assay, conditions: average of UNC Light and UNC Heavy experiments
row,Relative to UNC0638 Average,Molecule
1,0.20 log base 2,B1
2,0.21 log base 2,B2
3,0.19 log base 2,B3
